Target: T1, BACE1 (UniProt P56817 46-501, limits assumed)
T1 construct: Detected as monomer and dimer in the co-immunoprecipitates; also called β-secretase
Assay: co-immunoprecipitation from HEK 293 lysates with nectin-1 cytoplasmic specific antibody, anti-BACE1 Western blot
Protocol: To define the minimal region within the ectodomain of nectin-1 required for BACE1 interaction, immunoprecipitations between the nectin-1 truncation mutants and BACE1 were performed. BACE1 and full length or truncated nectin-1 were co-expressed in HEK 293 cells and harvested 48 hr. after transfection. To confirm to the efficiencies of the co-transfections, equal volumes of cell lysate were loaded on SDS-PAGE gels and analyzed by Western blot. Transfection efficiency was similar for nectin-1 and its derivates (FIG. 10A) and BACE1 (FIG. 10B). Immunoprecipitation was performed with a nectin-1 cytoplasmic specific antibody and precipitates were analyzed on two separate 10% SDS-PAGE. Western blots were probed with anti-nectin-1 (FIG. 10C) or anti-BACE1 (FIG. 10D) antibodies. The nectin-1 antibody directly immunoprecipitated the respective nectin-1 polypeptides and processed CTFs (FIG. 10C). Furthermore, BACE1, both monomer and dimer, was immunoprecipitated by the nectin-1 antibody, confirming the association of BACE1 with nectin-1. Two truncation mutants Δ28-250 and Δ28-300, interacted with BACE1 very strongly.

T1 sequence (P56817 46-501 limits assumed): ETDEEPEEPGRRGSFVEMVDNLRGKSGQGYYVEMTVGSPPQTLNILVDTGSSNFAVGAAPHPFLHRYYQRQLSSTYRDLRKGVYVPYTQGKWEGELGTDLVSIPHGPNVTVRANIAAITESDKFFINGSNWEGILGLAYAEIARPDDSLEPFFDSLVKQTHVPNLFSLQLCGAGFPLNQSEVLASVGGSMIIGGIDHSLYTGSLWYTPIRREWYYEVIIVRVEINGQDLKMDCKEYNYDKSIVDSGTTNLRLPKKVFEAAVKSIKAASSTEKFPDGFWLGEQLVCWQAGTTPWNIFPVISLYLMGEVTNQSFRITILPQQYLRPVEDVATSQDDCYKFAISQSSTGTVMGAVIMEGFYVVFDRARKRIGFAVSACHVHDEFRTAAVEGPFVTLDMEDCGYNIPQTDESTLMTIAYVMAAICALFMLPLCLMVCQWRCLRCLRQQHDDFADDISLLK

binding result: no binding
B1: nectin-1 truncation mutant Δ28-349 (receptor)
chain: PTAIIGGVAGSILLVLIVVGGIVVALRRRRHTFKGDYSTKKHVYGNGYSKAGIPQHHPPMAQNLQYPDDSDDEKKAGPLGGSSYEEEEEEEEGGGGGERKVGGPHPKYDEDAKRPYFTVDEAEARQDGYGDRTLGYQYDPEQLDLAENMVSQNDGSFISKKEWYV
notes: see m5; not shown: flag tag at the C-terminus
